Results: US20220041691A1, “METHODS FOR DIAGNOSING OR TREATING POST-TRAUMATIC STRESS DISORDER, AND COMPOSITIONS THEREFOR” (Centre for Addiction and Mental Health, priority 2018, published 2022)
Read-outs that look alike come from different tables or passages of the source. Ends that are not written are not given here.

T1: GR (Mus musculus, UniProt P06537)
T1 construct: from tissue; host or cells: mouse brain
T1 sequence (P06537 1-792): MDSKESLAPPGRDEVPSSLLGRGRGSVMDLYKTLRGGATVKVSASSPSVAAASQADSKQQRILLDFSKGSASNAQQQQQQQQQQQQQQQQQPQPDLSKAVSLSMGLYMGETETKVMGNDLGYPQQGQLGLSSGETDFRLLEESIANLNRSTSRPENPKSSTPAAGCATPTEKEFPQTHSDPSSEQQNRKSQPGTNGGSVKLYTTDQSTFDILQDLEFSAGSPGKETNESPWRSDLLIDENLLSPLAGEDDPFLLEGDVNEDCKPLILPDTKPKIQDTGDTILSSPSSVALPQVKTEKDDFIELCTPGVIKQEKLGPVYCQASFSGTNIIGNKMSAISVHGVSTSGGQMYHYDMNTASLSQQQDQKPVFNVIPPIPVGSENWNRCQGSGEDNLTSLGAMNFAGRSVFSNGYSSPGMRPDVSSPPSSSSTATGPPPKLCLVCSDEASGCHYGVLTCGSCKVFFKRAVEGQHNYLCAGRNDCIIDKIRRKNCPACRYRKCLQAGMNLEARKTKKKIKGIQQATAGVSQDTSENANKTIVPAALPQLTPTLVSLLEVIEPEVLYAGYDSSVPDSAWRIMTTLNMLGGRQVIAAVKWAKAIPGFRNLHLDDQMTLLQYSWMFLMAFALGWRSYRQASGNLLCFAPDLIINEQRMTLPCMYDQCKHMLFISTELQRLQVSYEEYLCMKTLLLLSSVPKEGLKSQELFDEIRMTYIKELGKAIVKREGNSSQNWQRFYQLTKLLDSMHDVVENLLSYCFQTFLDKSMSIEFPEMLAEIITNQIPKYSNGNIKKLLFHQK

T2: FKBP51-TPR (Homo sapiens, UniProt Q13451)
T2 construct: made in house; host or cells: bacteria
T2 sequence (Q13451 258-457): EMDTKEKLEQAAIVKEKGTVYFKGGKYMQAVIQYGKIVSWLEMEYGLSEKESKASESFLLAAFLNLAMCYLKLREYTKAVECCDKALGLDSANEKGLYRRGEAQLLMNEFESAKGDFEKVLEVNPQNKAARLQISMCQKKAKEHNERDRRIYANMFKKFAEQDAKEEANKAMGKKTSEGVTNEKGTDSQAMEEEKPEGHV

T3: GFP-FKBP51 (Homo sapiens, UniProt Q13451)
T3 sequence (Q13451 1-457): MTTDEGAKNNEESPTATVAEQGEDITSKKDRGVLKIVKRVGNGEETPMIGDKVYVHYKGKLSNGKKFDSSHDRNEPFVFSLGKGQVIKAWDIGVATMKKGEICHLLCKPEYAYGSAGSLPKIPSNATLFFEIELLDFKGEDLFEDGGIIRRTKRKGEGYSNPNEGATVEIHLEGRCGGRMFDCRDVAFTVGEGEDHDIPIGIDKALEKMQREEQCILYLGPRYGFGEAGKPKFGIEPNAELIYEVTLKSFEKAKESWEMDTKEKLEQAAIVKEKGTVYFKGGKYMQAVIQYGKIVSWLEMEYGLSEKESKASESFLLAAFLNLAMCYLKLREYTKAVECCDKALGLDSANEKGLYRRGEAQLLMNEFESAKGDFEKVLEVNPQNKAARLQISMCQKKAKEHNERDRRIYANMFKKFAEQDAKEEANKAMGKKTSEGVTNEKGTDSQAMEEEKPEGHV


What was measured:
[1] = target: T1, GR; assay: GST pull-down of GR by GST-FKBP51 fragments in mouse brain tissue; type: binding
Text: The present inventors identified that if increased GR-FKBP51 complex levels are part of the pathophysiology of PTSD, then disrupting the complex may rescue behaviors related to PTSD. To develop an agent (in this example, a peptide-based agent) capable of blocking the GR-FKBP51 interaction, experiments were first performed to identify the regions of the GR that are important to bind FKBP51 (and vice versa). Initially, GST-fusion proteins were used encoding the amino-terminus (NT) of GR (GRNT) and the carboxyl-terminus (CT) of GR (GRCT) for affinity purification. […] Extending this strategy, GRNT fragments were examined (see FIG. 8, where the 6 tested GRNT fragments, NT-1, NT-2, NT-3, NT-4, NT-5, and NT-6 are shown). […] Similarly, it was determined that the TPR (tetratricopeptide repeat) domains of FKBP51 bind GR (FIG. 2D). In these studies, GST-fusion proteins of 3 different portions of the FKBP51 protein were prepared (FK1, FK2, and TPR, see FIG. 9) and tested. The TPR fragment was identified as containing the relevant interaction region.
GST-fusion proteins encoding truncated GR fragments were amplified by PCR from full-length human cDNA clones. All constructs were sequenced to confirm the absence of PCR-generated errors. […]

[2] = target: T2, FKBP51-TPR; assay: Surface plasmon resonance, binding of FKBP51 TPR domain to GR and its phosphorylation mutants; conditions: Flag-tagged GR immobilized on sensor chip, 25° C.
Description: The binding of FKBP51 TPR domain to GR and its phosphorylation mutants was determined by surface plasmon resonance using a Reichert SR7500DC instrument. Experiments were conducted at 25° C. with 2000 RU HEK293 expressed FLAG-tagged GR bound onto a FLAG antibody-coated Dextran 50,000 Da chip. Running buffer (PBS, pH 7.4 with 0.005% Tween 20) was used with a flow rate of 25 μl/min. With association time of 300s and dissociation of 240s, binding signals were determined by injecting various concentrations of the GST-FKBP51_TPR.

[3] = target: T3, GFP-FKBP51; assay: Co-immunoprecipitation of Flag-GR (WT, S211A, S211E) with GFP-FKBP51 in transfected HEK293T cells; type: cell-based; conditions: HEK293T cells transfected with GR variant and GFP-FKBP51, n=3
Text: Thus, it was investigated whether the increased GR-FKBP51 seen in fear-conditioned mice and PTSD patients was associated with altered GR S211 phosphorylation. […] Similar results were also seen in samples from PTSD patients (FIG. 5C n=12, p<0.05, t-test). To probe further into how S211 phosphorylation and GR-FKBP51 are related, two GR mutants were generated (see SEQ ID NOs: 10 (S211A) and 11 (S211E) of FIG. 10). S211A is a non-phosphorylated GR mutant and S211E is phosphomimetic GR mutant.
HEK293T cells were maintained as a monolayer culture at 37° C. in Dulbecco's Modified Eagle Medium (DMEM) (Invitrogen) supplemented with 10% fetal bovine serum (Gibco). Cells were grown to 90% confluence before being transiently transfected with DNA constructs by X-treme GENE 9 transfection reagent (Roche), following the manufacturer's instructions. About 24-48 hrs after transfection, cells were used for experiments.
Co-immunoprecipitation and Western blot analyses were performed as previously described.^24, 25, 26 For co-immunoprecipitation, 500˜1000 μg solubilized protein was extracted from whole mouse brain and incubated with primary antibody or control IgG (2˜4 μg) for 4 hrs at 4° C., followed by the addition of 25 μl protein A/G plus agarose (Santa Cruz Biotechnology) for 12 hrs. Pellets were washed, boiled for 5 min in SDS sample buffer and subjected to SDS-PAGE. 50˜100 μg of total protein extract was used as control in each experiment. After transfer of proteins into nitrocellulose, membranes were Western blotted with the primary antibodies. The intensity of protein level was quantified by densitometry (software: ImageLab, Bio-Rad).
Mutants of Flag-GR and GST-GR-NT were created with the QuickChange site-directed mutagenesis kit (Stratagene, La Jolla, Calif.). All mutants were confirmed by DNA sequencing.

[4] = read-out: KD for binding FKBP51 (SPR)

Molecule	pull-down of GR by GST-FKBP51 fragment, Western blot [1]	Kd [2, 4]	GR-FKBP51 complex level (Flag-GR co-immunoprecipitated with GFP-FKBP51) compared to wild-type GR [3]	GR-FKBP51 complex level (Flag-GR co-immunoprecipitated with GFP-FKBP51) compared to wild-type GR ([3]; listed as S211A-GR)	Kd ([2]; figure legend values, read-out: KD for binding FKBP51-TPR (SPR))
GST-TPR3: GST-fusion protein of FKBP51 TPR fragment 3 (GEAQLLMNEFESAKGDFEKVLEVNPQNKAARLQISMCQKKAKEHNERDRR; also: GST fusion protein)	can “pull-down”	–	–	–	–
S211A GR: non-phosphorylated GR mutant, Flag-tagged (protein, Flag tag; Amino Acid Sequence of S211A GR Mutant (non-phosphorylated GR mutant), non-phosphorylated GR mutant, Flag-tagged) MDSKESLTPGREENPSSVLAQERGDVMDFYKTLRGGATVKVSASSPSLAVASQSDSKQRRLLVDFPKGSVSNAQQPDLSKAVSLSMGLYMGETETKVMGNDLGFPQQGQISLSSGETDLKLLEESIANLNRSTSVPENPKSSASTAVSAAPTEKEFPKTHSDVSSEQQHLKGQTGTNGGNVKLYTTDQSTFDILQDLEFSSGSPGKETNEAPWRSDLLIDENCLLSPLAGEDDSFLLEGNSNEDCKPLILPDTKPKIKDNGDLVLSSPSNVTLPQVKTEKEDFIELCTPGVIKQEKLGTVYCQASFPGANIIGNKMSAISVHGVSTSGGQMYHYDMNTASLSQQQDQKPIFNVIPPIPVGSENWNRCQGSGDDNLTSLGTLNFPGRTVFSNGYSSPSMRPDVSSPPSSSSTATTGPPPKLCLVCSDEASGCHYGVLTCGSCKVFFKRAVEGQHNYLCAGRNDCIIDKIRRKNCPACRYRKCLQAGMNLEARKTKKKIKGIQQATTGVSQETSENPGNKTIVPATLPQLTPTLVSLLEVIEPEVLYAGYDSSVPDSTWRIMTTLNMLGGRQVIAAVKWAKAIPGFRNLHLDDQMTLLQYSWMFLMAFALGWRSYRQSSANLLCFAPDLIINEQRMTLPCMYDQCKHMLYVSSELHRLQVSYEEYLCMKTLLLLSSVPKDGLKSQELFDEIRMTYIKELGKAIVKREGNSSQNWQRFYQLTKLLDSMHEVVENLLNYCFQTFLDKTMSIEFPEMLAEIITNQIPKYSNGNIKKLLFHQK	–	0.412 µM	significantly higher	higher levels of the GR-FKBP51 complex	–
S211E GR: phosphomimetic GR mutant, Flag-tagged (protein, Flag tag; Amino Acid Sequence of S211E GR Mutant (phosphomimetic GR mutant), phosphomimetic GR mutant, Flag-tagged) MDSKESLTPGREENPSSVLAQERGDVMDFYKTLRGGATVKVSASSPSLAVASQSDSKQRRLLVDFPKGSVSNAQQPDLSKAVSLSMGLYMGETETKVMGNDLGFPQQGQISLSSGETDLKLLEESIANLNRSTSVPENPKSSASTAVSAAPTEKEFPKTHSDVSSEQQHLKGQTGTNGGNVKLYTTDQSTFDILQDLEFSSGSPGKETNEEPWRSDLLIDENCLLSPLAGEDDSFLLEGNSNEDCKPLILPDTKPKIKDNGDLVLSSPSNVTLPQVKTEKEDFIELCTPGVIKQEKLGTVYCQASFPGANIIGNKMSAISVHGVSTSGGQMYHYDMNTASLSQQQDQKPIFNVIPPIPVGSENWNRCQGSGDDNLTSLGTLNFPGRTVFSNGYSSPSMRPDVSSPPSSSSTATTGPPPKLCLVCSDEASGCHYGVLTCGSCKVFFKRAVEGQHNYLCAGRNDCIIDKIRRKNCPACRYRKCLQAGMNLEARKTKKKIKGIQQATTGVSQETSENPGNKTIVPATLPQLTPTLVSLLEVIEPEVLYAGYDSSVPDSTWRIMTTLNMLGGRQVIAAVKWAKAIPGFRNLHLDDQMTLLQYSWMFLMAFALGWRSYRQSSANLLCFAPDLIINEQRMTLPCMYDQCKHMLYVSSELHRLQVSYEEYLCMKTLLLLSSVPKDGLKSQELFDEIRMTYIKELGKAIVKREGNSSQNWQRFYQLTKLLDSMHEVVENLLNYCFQTFLDKTMSIEFPEMLAEIITNQIPKYSNGNIKKLLFHQK	–	3.9 ± 0.01 µM	no significant difference	–	3.9 µM
GST-TPR: GST-fusion protein of FKBP51 tetratricopeptide repeat (TPR) domain (protein, left off: a dimerising Fc or GST, GST-fusion protein of FKBP51 tetratricopeptide repeat (TPR) domain) EMDTKEKLEQAAIVKEKGTVYFKGGKYMQAVIQYGKIVSWLEMEYGLSEKESKASESFLLAAFLNLAMCYLKLREYTKAVECCDKALGLDSANEKGLYRRGEAQLLMNEFESAKGDFEKVLEVNPQNKAARLQISMCQKKAKEHNERDRRIYANMFKKFAEQDAKEEANKAMGKKTSEGVTNEKGTDSQAMEEEKPEGHV	can “pull-down”	–	–	–	–
